Changes are numbered by the printed parent chain.
B1: rhuMAb 410 (antibody, human IgG1, V domains shown)
VH: EVQLVQSGGGLKQPGETLRLSCTASGYSLTTYGVHWVRQAPGKGLEWMGVIWGDGRTDYDSSFMSRVTISKDTSKSTAYLQLNSLRAEDTAVYYCTRNRHDWFDYWGQGTTVTVSS
VL: DILMTQSPSSLSASPGDRVTISCRASQDIRNNLNWYQQKPGQAPRLLIYYSSNLHSGVPDRFSGSGSGTDFTLTISRLEPEDFAAYYCQQSIKLPLTFGSGTKVEIKR
B2: Fab comprising X385 VH and CM03 VL (Fab, V domains shown)
VH: B1 VH with L11V, S21T, Y27F, M48V, S61A, S62A, L82M, T96M
VL: DIQMTQSPSSLSASLGDRVTITCSASQGIRNSLNWYQQKPDGAVKLLIYYSSNLHSGVPSRFSGSGSGTDFSLTISNLEPEDIATYYCQQSIKLPFTFGSGTKLEIK
notes: Fab made in E. coli
B3: Fab comprising X384 VH and CM03 VL (Fab, V domains shown)
VH: EVQLVESGAGVKQPGGTLRLTCTASGFSLTTYGVHWVRQAPGKGLEWVGVIWGDGRTDYDAAFMSRVTISKDTSKSTVYLQMNSLRAEDTAVYYCMRNRHDWFDYWGQGTTVTVSS
VL: B2 VL
notes: Fab made in E. coli
B4: Fab comprising X386 VH and CM03 VL (Fab, V domains shown)
VH: B3 VH with K12E, V48M, K71R, V78A, M82L, M96V
VL: B2 VL
notes: Fab made in E. coli
B5: Fab comprising X377 VL and CM03 VH (Fab, V domains shown)
VH: QVKLQESGPGLVQPSQTLSITCTVSGFSLTTYGVHWVRQSPGKGLEWLGVIWGGGRTDYDAAFISRLSISKDNSKSQVFFKMNSLQANDTAIYYCVRNRHDWFDYWGQGTTVTVSS
VL: EIELTQSPSSLSVSLGDRVTISCSASQDIRNNLNWYQQKPGQAPRLLIYYSSNLQTGVPARFSGSGSGTDFTLTISRLEPEDVAAYYCQQSIKLPFTFGSGTKVEIK
notes: Fab made in E. coli; also called X377 Fab
B6: Fab comprising X378 VL and CM03 VH (Fab, V domains shown)
VH: B5 VH
VL: DIEMTQSPSSLSASAGERVTISCRASQGIRNSLNWYQQKPGQAPRLLIYYSSNLQTGVPSRFSGSGSGTDFTLTISRLQAEDFATYYCQQSNKLPFTFGSGTKVEIK
notes: Fab made in E. coli
B7: Fab comprising X379 VL and CM03 VH (Fab, V domains shown)
VH: B5 VH
VL: DILLTQSPSSLSATPGERATITCRASQGIRNNLNWYQQKPGQAPRLLIYYSSNLQSGVPSRFSGSGSGTDFTLTISRLQPEDVAAYYCQQSIKLPFTFGSGTKVEIK
notes: Fab made in E. coli
B8: Fab comprising X376 VL and CM03 VH (Fab, V domains shown)
VH: B5 VH
VL: DILMTQSPSSLSASPGDRVTISCRASQDIRNNLNWYQQKPGQAPRLLIYYSSNLHSGVPDRFSGSGSGTDFTLTISRLEPEDFAAYYCQQSIKLPLTFGSGTKVEIK
notes: Fab made in E. coli
B9: Fab comprising X381 VL and CM03 VH (Fab, V domains shown)
VH: B5 VH
VL: B5 VL with L15P, D28G, N32S, Q55H, E79Q, P80A, V83F, A85T, F96L
notes: Fab made in E. coli
B10: Fab comprising X380 VL and CM03 VH (Fab, V domains shown)
VH: B5 VH
VL: B5 VL with L4M, L15A, D17E, V19A, N32S, Q55H, A85I, I92N, F96L
notes: Fab made in E. coli

Each binder was assayed against human CD26 on the cell surface (human, UniProt P27487 1-766) (assay: cell-based or functional assay).
Sequence of human CD26 on the cell surface (P27487 whole entry): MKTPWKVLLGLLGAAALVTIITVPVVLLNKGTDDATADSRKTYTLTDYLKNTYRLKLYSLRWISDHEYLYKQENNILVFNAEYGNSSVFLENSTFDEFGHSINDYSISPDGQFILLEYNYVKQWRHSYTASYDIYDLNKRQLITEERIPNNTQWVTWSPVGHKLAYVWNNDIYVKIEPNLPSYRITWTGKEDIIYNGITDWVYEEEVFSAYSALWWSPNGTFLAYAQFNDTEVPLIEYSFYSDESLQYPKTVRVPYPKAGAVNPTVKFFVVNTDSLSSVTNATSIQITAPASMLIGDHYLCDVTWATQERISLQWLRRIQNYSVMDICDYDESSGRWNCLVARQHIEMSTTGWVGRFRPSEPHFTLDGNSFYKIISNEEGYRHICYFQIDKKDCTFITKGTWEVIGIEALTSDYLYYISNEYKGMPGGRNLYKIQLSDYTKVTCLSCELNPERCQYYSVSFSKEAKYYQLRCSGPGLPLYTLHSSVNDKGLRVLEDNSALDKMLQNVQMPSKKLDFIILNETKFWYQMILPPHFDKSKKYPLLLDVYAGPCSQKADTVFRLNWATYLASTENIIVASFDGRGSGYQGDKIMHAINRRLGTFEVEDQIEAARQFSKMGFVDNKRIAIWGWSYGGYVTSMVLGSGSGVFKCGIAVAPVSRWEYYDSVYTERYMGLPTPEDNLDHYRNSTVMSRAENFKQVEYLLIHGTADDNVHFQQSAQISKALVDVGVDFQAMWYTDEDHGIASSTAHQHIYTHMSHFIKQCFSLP
B1 was tested, and the “percent inhibition, MTT assay, Jurkat CD26+ cells, 0.05 ug/ml” value was 4%, the “percent inhibition, MTT assay, Jurkat CD26+ cells, 0.25 ug/ml” value was 10.7% and the “percent inhibition, MTT assay, Jurkat CD26+ cells, 0.5 ug/ml” value was 14%. The “percent inhibition, MTT assay, Jurkat CD26+ cells, 2.5 ug/ml” value was 27.5% and the “percent inhibition, MTT assay, Jurkat CD26+ cells, 5 ug/ml” value was 33.5%.

Each binder was assayed against T1, Purified recombinant human CD26 (rhDipeptidyl peptidase IV), R&D Systems CAT #1180-SE (human, UniProt P27487 29-766) (assay: SPR (Biacore), Fab).
T1 construct: Bought recombinant protein; also called hu-CD26; soluble human CD26
T1 sequence (P27487 29-766 limits assumed): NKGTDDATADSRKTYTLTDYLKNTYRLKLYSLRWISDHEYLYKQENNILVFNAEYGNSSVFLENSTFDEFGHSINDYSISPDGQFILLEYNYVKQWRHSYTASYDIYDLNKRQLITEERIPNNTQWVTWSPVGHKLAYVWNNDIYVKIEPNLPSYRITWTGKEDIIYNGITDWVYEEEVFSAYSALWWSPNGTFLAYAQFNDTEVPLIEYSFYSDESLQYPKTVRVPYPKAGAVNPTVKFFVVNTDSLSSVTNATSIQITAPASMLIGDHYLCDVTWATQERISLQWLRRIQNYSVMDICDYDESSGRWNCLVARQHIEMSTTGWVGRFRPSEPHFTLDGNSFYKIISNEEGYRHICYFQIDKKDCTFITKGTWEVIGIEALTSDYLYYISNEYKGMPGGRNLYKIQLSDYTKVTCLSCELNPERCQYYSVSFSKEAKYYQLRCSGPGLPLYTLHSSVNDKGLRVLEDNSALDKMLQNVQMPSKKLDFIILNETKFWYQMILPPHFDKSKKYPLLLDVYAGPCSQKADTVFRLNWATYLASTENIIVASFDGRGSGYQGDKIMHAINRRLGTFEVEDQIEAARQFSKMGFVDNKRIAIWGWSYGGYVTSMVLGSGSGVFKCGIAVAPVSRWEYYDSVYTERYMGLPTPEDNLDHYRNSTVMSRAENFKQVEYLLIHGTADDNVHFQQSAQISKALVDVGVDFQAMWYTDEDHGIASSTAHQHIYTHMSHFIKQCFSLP
Procedure: (§1) Fabs produced in E. coli as described below were diluted in PBS in a concentration of ˜0.5 μM for the assay. A typical recording included a 3 minute period of injection of the Fab followed by a period of 15 minutes of dissociation, and analysis was performed based on the raw data of the binding curves accordingly.
In the case of B2, the Kd is reported as 1.47 nM, the koff is reported as 0.000375 s⁻¹ and the kon is reported as 256000 M⁻¹ s⁻¹.
Binder B3 has a Kd of 1.19 nM, a koff of 0.000312 s⁻¹ and a kon of 262000 M⁻¹ s⁻¹.
In the case of B4, the Kd is reported as 2.71 nM, the koff is reported as 0.000498 s⁻¹ and the kon is reported as 184000 M⁻¹ s⁻¹.

Target: T1, Purified recombinant human CD26 …
Assay: SPR (Biacore), Fab
Remark: another data set of the same source
With B2 the Kd was 1.5 nM.
With B3 the Kd was 1.2 nM.
In the case of B4, the Kd is reported as 2.7 nM.
Work on B5 yielded a Kd of 1.9 nM.
With B6 the Kd was 2.9 nM.
Binder B7 has a Kd of 1.2 nM.
B8 gave a Kd of 2.3 nM.
For B9, the Kd was 2.1 nM.
Binder B10 has a Kd of 2.3 nM.

Target: T1, Purified recombinant human CD26 …
Assay: SPR (Biacore), Fab
Remark: another data set of the same source
Procedure: as §1
The CD26 binding partner was as shown below.
B5 showed a Kd of 1.88 nM, a koff of 0.000596 s⁻¹ and a kon of 317000 M⁻¹ s⁻¹.
Work on B6 yielded a Kd of 2.92 nM, a koff of 0.00083 s⁻¹ and a kon of 285000 M⁻¹ s⁻¹.
In the case of B7, the Kd is reported as 1.16 nM, the koff is reported as 0.00067 s⁻¹ and the kon is reported as 578000 M⁻¹ s⁻¹.
Binder B8 has a Kd of 2.31 nM, a koff of 0.000596 s⁻¹ and a kon of 258000 M⁻¹ s⁻¹.
B9 was tested, and the Kd was 2.1 nM, the koff was 0.000601 s⁻¹ and the kon was 293000 M⁻¹ s⁻¹.
B10 showed a Kd of 2.33 nM, a koff of 0.000687 s⁻¹ and a kon of 294000 M⁻¹ s⁻¹.

Reference: patent US20070105771A1 (Y S THERAPEUTICS, published 2007)
